Experimental findings from PMC6323120 are described below.

In this assay the target is T1, TNFR1, P19438.
T1 chain: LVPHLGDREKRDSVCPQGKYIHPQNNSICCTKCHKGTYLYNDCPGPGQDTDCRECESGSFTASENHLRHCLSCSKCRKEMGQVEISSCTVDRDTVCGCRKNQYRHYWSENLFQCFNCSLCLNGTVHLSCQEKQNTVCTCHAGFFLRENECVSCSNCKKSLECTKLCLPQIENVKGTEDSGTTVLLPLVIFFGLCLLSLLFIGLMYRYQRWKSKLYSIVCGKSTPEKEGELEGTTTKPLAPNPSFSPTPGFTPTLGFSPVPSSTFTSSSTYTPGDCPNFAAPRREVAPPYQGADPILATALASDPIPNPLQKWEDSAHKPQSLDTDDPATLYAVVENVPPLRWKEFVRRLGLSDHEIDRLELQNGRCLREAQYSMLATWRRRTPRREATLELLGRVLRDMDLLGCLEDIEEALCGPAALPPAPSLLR
As to the kind of experiment: quantitative single-molecule localization microscopy (dSTORM/PALM); TNFR1 in the plasma membrane at physiological cell surface expression levels, upon TNF binding. As to conditions: remark: other sources report otherwise.

B1: TNFR1, P19438 30-455 (receptor)
chain: LVPHLGDREKRDSVCPQGKYIHPQNNSICCTKCHKGTYLYNDCPGPGQDTDCRECESGSFTASENHLRHCLSCSKCRKEMGQVEISSCTVDRDTVCGCRKNQYRHYWSENLFQCFNCSLCLNGTVHLSCQEKQNTVCTCHAGFFLRENECVSCSNCKKSLECTKLCLPQIENVKGTEDSGTTVLLPLVIFFGLCLLSLLFIGLMYRYQRWKSKLYSIVCGKSTPEKEGELEGTTTKPLAPNPSFSPTPGFTPTLGFSPVPSSTFTSSSTYTPGDCPNFAAPRREVAPPYQGADPILATALASDPIPNPLQKWEDSAHKPQSLDTDDPATLYAVVENVPPLRWKEFVRRLGLSDHEIDRLELQNGRCLREAQYSMLATWRRRTPRREATLELLGRVLRDMDLLGCLEDIEEALCGPAALPPAPSLLR
The molecule B1 had a stoichiometry N greater than 3.

A word on the stoichiometry N: it is the number of molecules, sites or subunits per partner or assembly.
